From patent US20200282021A1 (published 2020)

T1: human GLP-1 receptor (Abcam) (human, UniProt P43220 24-145)
T1 chain: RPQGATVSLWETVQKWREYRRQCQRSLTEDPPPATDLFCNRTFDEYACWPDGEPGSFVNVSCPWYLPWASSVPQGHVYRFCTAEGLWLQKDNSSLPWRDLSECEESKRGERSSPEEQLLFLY


How the values were obtained:
[1] = biological target: T1, human GLP-1 receptor (Abcam); assay: BLI
Dulaglutide = assay: BLI

Row | Kd [1] [µM] | Kd (Dulaglutide) [µM] | Binder
1 | 45 |  | GLP-1(A2G)-hyFc9 (Fc fusion, O-glycosylation at the IgD hinge region (positions not stated)) HGEGTFTSDVSSYLEGQAAKEFIAWLVKGRGAKATTAPATTRNTGRGGEEKKKEKEKEEQEERETKTPECPSHTQPLGVFLFPPKPKDTLMISRTPEVTCVVVDVSQEDPEVQFNWYVDGVEVHNAKTKPREEQFNSTYRVVSVLTVLHQDWLNGKEYKCKVSNKGLPSSIEKTISKAKGQPREPQVYTLPPSQEEMTKNQVSLTCLVKGFYPSDIAVEWESNGQPENNYKTTPPVLDSDGSFFLYSRLTVDKSRWQEGNVFSCSVMHEALHNHYTQKSLSLSLGK
2 |  | 0.395 | GLP-1 receptor (receptor) RPQGATVSLWETVQKWREYRRQCQRSLTEDPPPATDLFCNRTFDEYACWPDGEPGSFVNVSCPWYLPWASSVPQGHVYRFCTAEGLWLQKDNSSLPWRDLSECEESKRGERSSPEEQLLFLY
